Assay results: patent US20110097270A1 (published 2011)

Biological target: hepatitis B virus (HBV) inoculum (hepatitis B virus)
Assay: cell-based or functional assay

B1: HBV#8 Fab (Fab, V domains shown)
VH: EVQLLESGPGLVKPSQTLSLTCAVSGAFMTSDYLYWSWLRQPPGKGPEWIGGIYTTGRSHYNPSLRGRATLSVDTSKNQFSLELNSVTAADTAVYYCARGQYHNWGPSLFDYYNYYYMDVWGKGTTVTVSS
VL: AAELTQSPSSLSASVGDRVTITCRASQDISNYLAWYQQKPGKAPKLLIYSASRLQSGVPSRFSGSGSGTDYTLTLSSLHPEDSATYYCHQYHSAPWTFGQGTKVEIKR
P/N of HBsAg in cell supernatant (RIA, day 12) at MAb 0.01 µg ml^-1: 82 P/N ratio | P/N of HBsAg in cell supernatant (RIA, day 12) at MAb 0.1 µg ml^-1: 83.3 P/N ratio | P/N of HBsAg in cell supernatant (RIA, day 12) at MAb 1.0 µg ml^-1: 55.8 P/N ratio | P/N of HBsAg in cell supernatant (RIA, day 12) at MAb 10.0 µg ml^-1: 4.1 P/N ratio
